Target: SARS-CoV-2 Spike S1 domain (amino acids 14 to 681), HEK293-produced (SARS-CoV-2, UniProt P0DTC2 14-681)
Assay: far-Western, overlay or dot blot
Conditions: both partners purified

B1: cyanovirin-N (natural protein)
chain: LGKFSQTCYNSAIQGSVLTSTCERTNGGYNTSSIDLNSVIENVDGSLKWQPSNFIETCRNTQLAGSSELAAECKTRAQQFVSTKINLDDHIANIDGTLKYE
notes: also called CV-N
  binding result: binds
